Reference: publication PMC3407616, “Inhibition of Heme Peroxidases by Melamine” (Enzyme Research, 2012)

Key:
I = assay: purified protein; conditions: pH 6.0
lactoperoxidase (LPO) = lactoperoxidase (LPO) (Bos taurus, UniProt P80025); assay: iodide oxidation (HOI formation), absorbance […] nm, kinetic fit; format: biochemical; conditions: read-out: LPO^b

Compound	Km (I) [µM]	Ki (lactoperoxidase (LPO)) [mM]
lactoperoxidase (LPO) (Bos taurus)	2900 ± 400	–
Nc1nc(N)nc(N)n1 [melamine, 2,4,6-triamino-1,3,5-triazine]	–	15 ± 5
